This passage reports IC50 of inhibition of proliferation, MTT based cell viability assay, ARO cells and IC50 of inhibition of proliferation, MTT based cell viability assay, WRO cells results from US20120214165A1.

The target of this experiment is Epithelial cell adhesion molecule (EpCAM) (human) (UniProt P16422). Briefly: cell-based or functional assay.
UniProt P16422, sequence (P16422 24-314 M115T limits assumed): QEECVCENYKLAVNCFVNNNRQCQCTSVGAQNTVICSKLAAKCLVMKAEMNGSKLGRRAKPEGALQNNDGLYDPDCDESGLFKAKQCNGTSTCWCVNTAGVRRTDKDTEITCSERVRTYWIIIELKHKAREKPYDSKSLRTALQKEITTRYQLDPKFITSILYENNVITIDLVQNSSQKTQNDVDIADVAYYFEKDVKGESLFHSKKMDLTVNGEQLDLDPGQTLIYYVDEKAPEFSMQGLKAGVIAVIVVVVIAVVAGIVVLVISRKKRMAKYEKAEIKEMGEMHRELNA

“VB4-845 immunotoxin (from UniProt P11439 277-633)” returned an IC50 of inhibition of proliferation, MTT based cell viability assay, ARO cells of 0.7 pM and an IC50 of inhibition of proliferation, MTT based cell viability assay, WRO cells of 1 pM.
